Assay results from the supplement of paper PMC10126150.
± gives the standard deviation of the averaged measurements.

Tested on: ATP
Assay: switch fluorescence ratio, 500 uM ATP over buffer (Cy3 cluster intensity, sum of 5 cycles each) (fold (ratio)); higher = stronger signal-on switching upon ATP binding; sequences stand for … in TCGTCGGCAGCGTCAGATGTGTATAAGAGACAGTTTTTTTTTTTTTTTTTTTTTTTTT…TC
Conditions: aptamer strand: ATP DNA aptamer (quencher-CACCTGGGGGAGTATTGCGGAGGAAGG + anchor), 100 nM annealed; ATP concentration: 500 uM
Method in brief: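 Clusters carrying Cy3-labelled switching strands on a modified Illumina MiSeq flow-cell were annealed to 100 nM quencher-labelled ATP aptamer and imaged in selection buffer. They were imaged again after 15 min with 500 uM ATP at 22 °C, over five buffer/ATP cycles with NaOH stripping and re-annealing in between. For each cluster, the fluorescence ratio is the summed Cy3 intensity of the target cycles divided by that of the buffer cycles, averaged per switch-domain sequence. Clusters outside 100-1000 RFU were left out.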
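Note: ATP exposure 15 min at 22 °C before imaging.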

| Sequence | switch fluorescence ratio |
| --- | --- |
| CAGTGAGATG | 1.03 ± 0.019 |
| CAGTGAGCTC | 0.981 ± 0.022 |
| CAGTGAGGTT | 1.02 ± 0.031 |
| CAGTGCCAGC | 0.999 ± 0.035 |
| CAGTGTGAAG | 0.958 ± 0.016 |
| CAGTGTGGTC | 0.979 ± 0.055 |
| CAGTTACGAC | 1.13 ± 0.055 |
| CAGTTAGTGT | 1.001 ± 0.00021 |
| CAGTTATGCC | 0.988 ± 0.077 |
| CAGTTCCATG | 0.9857 ± 0.0091 |
| CAGTTCGGGA | 0.989 ± 0.02 |
| CAGTTGGATT | 1.01 ± 0.04 |
| CAGTTGGTC | 0.995 ± 0.037 |
| CAGTTTCAGG | 0.966 ± 0.043 |
| CAGTTTCCTC | 1.08 ± 0.015 |
| CAGTTTGACC | 0.987 ± 0.048 |
| CAGTTTTCCC | 1.01 ± 0.016 |
| CAGTTTTCTT | 1.01 ± 0.062 |
| CAGTTTTTTC | 1.005 ± 0.0054 |
| CATAACGTTA | 1.032 ± 0.0071 |
| CATAAGGTAT | 0.999 ± 0.046 |
| CATAATCCGA | 1.048 ± 0.0029 |
| CATAATCCGG | 0.9679 ± 0.0022 |

| Sequence | switch fluorescence ratio |
| --- | --- |
| CATAATGGTC | 0.986 ± 0.041 |
| CATAATTGGG | 0.995 ± 0.028 |
| CATAATTGTA | 0.979 ± 0.019 |
| CATACAATAT | 1.109 ± 0.0014 |
| CATACTTTGG | 1.01 ± 0.016 |
| CATAGGCTAC | 1.6 ± 0.031 |
| CATAGGGCTT | 0.963 ± 0.025 |
| CATAGGTTCT | 0.986 ± 0.023 |
| CATAGGTTGC | 0.983 ± 0.041 |
| CATAGTGATC | 1.051 ± 0.0011 |
| CATATAAACT | 1.039 ± 0.0047 |
| CATATATGTC | 1 ± 0.056 |
| CATATCTAGG | 0.997 ± 0.025 |
| CATATCTGAC | 1.16 ± 0.056 |
| CATATCTGAT | 1.01 ± 0.041 |
| CATATCTGTT | 1.02 ± 0.024 |
| CATATGCGTC | 1.02 ± 0.035 |
| CATATGCTGC | 1.0589 ± 0.00039 |
| CATATGTTAG | 1 ± 0.038 |
| CATATTCGCT | 1.01 ± 0.016 |
| CATATTTCCA | 0.99 ± 0.02 |
| CATATTTCGG | 0.995 ± 0.03 |
| CATATTTT | 0.971 ± 0.047 |

| Sequence | switch fluorescence ratio |
| --- | --- |
| CATATTTTTA | 1.04 ± 0.05 |
| CATCAGGCAC | 1.2 ± 0.023 |
| CATCATCTTG | 1 ± 0.062 |
| CATCATGTAC | 1.33 ± 0.059 |
| CATCCGAGGT | 1.14 ± 0.23 |
| CATCCGTGGG | 1.75 ± 0.085 |
| CATCCTTTAA | 1.007 ± 0.0082 |
| CATCGATTGT | 1 ± 0.019 |
| CATCGCGGAC | 3.88 ± 0.45 |
| CATCGGATAT | 1.04 ± 0.052 |
| CATCGGCAAG | 5.75 ± 1.3 |
| CATCGTATGG | 0.954 ± 0.022 |
| CATCTCAGTG | 1.03 ± 0.015 |
| CATCTGGCTT | 1.0536 ± 0.00031 |
| CATCTGTGCG | 1.02 ± 0.016 |
| CATGAAGGGG | 1.02 ± 0.015 |
| CATGAATGGA | 1.01 ± 0.017 |
| CATGACTAGA | 0.981 ± 0.014 |
| CATGAGAGGT | 1 ± 0.018 |
| CATGAGATAC | 1.16 ± 0.022 |
| CATGAGATTG | 0.971 ± 0.029 |
| CATGAGGGAG | 0.996 ± 0.019 |
| CATGAGTAAG | 1 ± 0.015 |

| Sequence | switch fluorescence ratio |
| --- | --- |
| CATGAGTATT | 0.954 ± 0.033 |
| CATGATGTTG | 0.975 ± 0.026 |
| CATGCAGCAT | 1.11 ± 0.02 |
| CATGCCGCAT | 1.133 ± 0.0092 |
| CATGCTAAGT | 0.997 ± 0.011 |
| CATGCTGGG | 0.992 ± 0.04 |
| CATGCTTGGC | 1.01 ± 0.055 |
| CATGCTTTGT | 0.9924 ± 0.0069 |
| CATGGAGGTC | 1.03 ± 0.026 |
| CATGGAGTGT | 1.01 ± 0.026 |
| CATGGATACG | 1.01 ± 0.021 |
| CATGGGAGAG | 1.05 ± 0.026 |
| CATGGGAGCT | 1.01 ± 0.043 |
| CATGGGGCCT | 0.9984 ± 0.0027 |
| CATGGGGGAG | 0.978 ± 0.035 |
| CATGGGGGTA | 0.982 ± 0.026 |
| CATGGGTGCG | 1.02 ± 0.014 |
| CATGGTATTA | 1.01 ± 0.044 |
| CATGGTCATG | 1 ± 0.017 |
| CATGGTGTGT | 1.01 ± 0.011 |
| CATGTAAGGC | 1.03 ± 0.021 |
| CATGTATTGG | 0.991 ± 0.021 |
| CATGTCATTG | 1.01 ± 0.015 |

| Sequence | switch fluorescence ratio |
| --- | --- |
| CATGTCCAGG | 1.46 ± 0.059 |
| CATGTCGAGC | 1.02 ± 0.059 |
| CATGTCGTTT | 1 ± 0.017 |
| CATGTGCACC | 1.014 ± 0.0092 |
| CATGTGTAAT | 1.009 ± 0.0086 |
| CATGTTCTTT | 0.999 ± 0.026 |
| CATGTTGAAG | 0.986 ± 0.077 |
| CATGTTTGCT | 0.961 ± 0.02 |
| CATGTTTTGC | 1.01 ± 0.065 |
| CATTAATGGG | 1.01 ± 0.019 |
| CATTACCGGA | 1.012 ± 0.0098 |
| CATTAGCAGG | 1.08 ± 0.032 |
| CATTAGCCAG | 0.99754 ± 0.00029 |
| CATTAGGGCT | 0.978 ± 0.015 |
| CATTATGATG | 1.01 ± 0.013 |
| CATTCACATT | 1.05 ± 0.034 |
| CATTCAGTTT | 0.949 ± 0.021 |
| CATTCCGAGA | 1.4 ± 0.024 |
| CATTCCGGGA | 1.63 ± 0.72 |
| CATTCTACTG | 1.04 ± 0.021 |
| CATTCTGACC | 1.08 ± 0.036 |
| CATTCTGCGC | 1.16 ± 0.05 |
| CATTGACATT | 1.06 ± 0.026 |

| Sequence | switch fluorescence ratio |
| --- | --- |
| CATTGAGGTT | 0.979 ± 0.02 |
| CATTGATGTG | 1 ± 0.011 |
| CATTGGCCGG | 1.095 ± 0.0025 |
| CATTGGTAGT | 0.977 ± 0.035 |
| CATTGGTTGT | 0.927 ± 0.025 |
| CATTGTGTAT | 0.975 ± 0.029 |
| CATTTAAAG | 1.01 ± 0.031 |
| CATTTAACGT | 0.991 ± 0.0041 |
| CATTTAGAGG | 1.007 ± 0.0073 |
| CATTTAGTGT | 0.984 ± 0.012 |
| CATTTAGTTG | 0.985 ± 0.042 |
| CATTTATATG | 1.02 ± 0.026 |
| CATTTATGCG | 0.989 ± 0.018 |
| CATTTCAGAG | 1.003 ± 0.0062 |
| CATTTCAGG | 1.05 ± 0.033 |
| CATTTCGTTT | 0.957 ± 0.014 |
| CATTTGAATT | 0.973 ± 0.033 |
| CATTTGCGGA | 0.981 ± 0.055 |
| CATTTGTGGA | 1.003 ± 0.0062 |
| CATTTGTGGT | 1.02 ± 0.014 |
| CATTTTTATC | 0.992 ± 0.012 |
| CATTTTTGTA | 0.986 ± 0.012 |
| CCAAAAGGCT | 1.08 ± 0.044 |

| Sequence | switch fluorescence ratio |
| --- | --- |
| CCAAATGAAT | 1.03 ± 0.025 |
| CCAAATTGGG | 1.016 ± 0.0048 |
| CCAACAGGTT | 1.69 ± 0.079 |
| CCAACCTGAT | 1.31 ± 0.18 |
| CCAACTTTTC | 1.0433 ± 0.00094 |
| CCAAGCATAG | 3.63 ± 0.47 |
| CCAAGCATCG | 1.197 ± 0.0062 |
| CCAAGTAGTA | 1.03 ± 0.032 |
| CCAAGTGTGC | 1.26 ± 0.17 |
| CCAAGTTCTC | 0.972 ± 0.021 |
| CCAATAGTTC | 1.08 ± 0.022 |
| CCAATGACGT | 0.979 ± 0.039 |
| CCAATGTATG | 0.998 ± 0.044 |
| CCAATTATGT | 1.01 ± 0.025 |
| CCAATTTGGG | 0.964 ± 0.029 |
| CCACAATCAG | 1.274 ± 0.012 |
| CCACACGTTT | 1.13 ± 0.076 |
| CCACAGAGGG | 1.21 ± 0.17 |
| CCACATCCAT | 1.044 ± 0.01 |
